The labels stand for the following.
B1: recombinant L1CAM ectodomain (L1CAM-ED) (domain or fragment, human, UniProt P32004 20-1120, looked up)
chain: IQIPEEYEGHHVMEPPVITEQSPRRLVVFPTDDISLKCEASGKPEVQFRWTRDGVHFKPKEELGVTVYQSPHSGSFTITGNNSNFAQRFQGIYRCFASNKLGTAMSHEIRLMAEGAPKWPKETVKPVEVEEGESVVLPCNPPPSAEPLRIYWMNSKILHIKQDERVTMGQNGNLYFANVLTSDNHSDYICHAHFPGTRTIIQKEPIDLRVKATNSMIDRKPRLLFPTNSSSHLVALQGQPLVLECIAEGFPTPTIKWLRPSGPMPADRVTYQNHNKTLQLLKVGEEDDGEYRCLAENSLGSARHAYYVTVEAAPYWLHKPQSHLYGPGETARLDCQVQGRPQPEVTWRINGIPVEELAKDQKYRIQRGALILSNVQPSDTMVTQCEARNRHGLLLANAYIYVVQLPAKILTADNQTYMAVQGSTAYLLCKAFGAPVPSVQWLDEDGTTVLQDERFFPYANGTLGIRDLQANDTGRYFCLAANDQNNVTIMANLKVKDATQITQGPRSTIEKKGSRVTFTCQASFDPSLQPSITWRGDGRDLQELGDSDKYFIEDGRLVIHSLDYSDQGNYSCVASTELDVVESRAQLLVVGSPGPVPRLVLSDLHLLTQSQVRVSWSPAEDHNAPIEKYDIEFEDKEMAPEKWYSLGKVPGNQTSTTLKLSPYVHYTFRVTAINKYGPGEPSPVSETVVTPEAAPEKNPVDVKGEGNETTNMVITWKPLRWMDWNAPQVQYRVQWRPQGTRGPWQEQIVSDPFLVVSNTSTFVPYEIKVQAVNSQGKGPEPQVTIGYSGEDYPQAIPELEGIEILNSSAVLVKWRPVDLAQVKGHLRGYNVTYWREGSQRKHSKRHIHKDHVVVPANTTSVILSGLRPYSSYHLEVQAFNGRGSGPASEFTFSTPEGVPGHPEALHLECQSNTSLLLRWQPPLSHNGVLTGYVLSYHPLDEGGKGQLSFNLRDPELRTHNLTDLSPHLRYRFQLQATTKEGPGEAIVREGGTMALSGISDFGNISATAGENYSVVSWVPKEGQCNFRFHILFKALGEEKGGASLSPQYVSYNQSSYTQWDLQPDTDYEIHLFKERMFRHQMAVKTNGTGRVRLPPAGFATE

The data set “SPR” concerns the molecule itself. In words: SPR.
Data set [1] concerns the target B1. In words: SPR. (SPR reads the build-up and loss of mass on a sensor chip optically.)

As to B1, the dissociation constant (Kd) in the data set “SPR” came out at 17 ± 1.3 nM.

As for LKEEEGRITIRGGK [ROBO3-A peptide], the “percent reduction of the RUmax of L1CAM-ED binding to immobilised L1CAM-ED” value (from here on “percent reduction”) in data set [1] was determined as 20%.

As to PIPGDSRVVVLPSG [DCC-A peptide], in data set [1], the “percent reduction” value amounted to 20%.

On to FIPTDGRHFVSQTTG [CNTN2-A peptide], for which the “percent reduction” value in data set [1] turned out to be 20%.

What is called Kd is a measure of binding affinity in units of concentration. Lower therefore signals a tighter complex.
